Data on 1 substance can be found in publication PMC8653885, “Higher expression of the strawberry xyloglucan endotransglucosylase/hydrolase genes FvXTH9 and FvXTH6 accelerates fruit ripening” (The Plant Journal, 2019).

This series deals with T1, OC[C@@H](O)[C@@H](O[C@@H]1O[C@H](CO[C@H]2OC[C@@H](O)[C@H](O)[C@H]2O)[C@@H](O[C@@H]2O[C@H](CO[C@H]3OC[C@@H](O)[C@H](O)[C@H]3O)[C@@H](O[C@@H]3O[C@H](CO[C@H]4OC[C@@H](O)[C@H](O)[C@H]4O)[C@@H](O)[C@H](O)[C@H]3O)[C@H](O)[C@H]2O)[C@H](O)[C@H]1O)[C@H](O)[C@@H](O)CO.
T1 construct: called FvXTH6 by Opazo et al. 2017
As to the kind of experiment: radiochemical XET assay, 3H incorporation into xyloglucan, Michaelis-Menten. In kind it is biochemical, Fragaria vesca. Conditions: acceptor substrate, donor 1% (w/v) tamarind xyloglucan, [3H]XXXGol diluted with unlabelled XXXGol (0-357 μM), labelled compound, general XET assay: 100 mM Na succinate pH 5.5, 25 °C.

Consider FvXTH9 (Fragaria vesca subsp. vesca), for which the Km is 43 µM.

Broadly, the Km is the substrate concentration at which the rate is half of its maximum.
